The results in this text go back to paper PMC7261172, “Peptides containing the PCNA interacting motif APIM bind to the β-clamp and inhibit bacterial growth and mutagenesis” (Nucleic Acids Research, 2020).

Holding throughout (conditions): both partners purified
The target of assay [1] is T1, E. coli β-clamp labelled with RED-maleimide dye (MST) (E. coli, UniProt P0A988 1-366, RED-maleimide fluorescent dye (RED-Maleimide Labelling Kit, NanoTemper); site not stated).
T1 construct: β-clamp (β subunit of DNA polymerase III), product of the dnaN gene, E. coli; it may or may not be the same His-tagged pET-16b construct as m1; also called fluorescent labeled β-clamp; Purified E.coli β-clamp; source: labelled with the RED-Maleimide Labelling Kit
Description: MST; β-clamp labelled with RED-maleimide (3 nM stock, diluted 1:1 with ligand); peptides in 16 1:1 dilutions from 500 μM to 15 nM; 50 mM Tris-HCl pH 7.5, 150 mM NaCl, 10 mM MgCl2, 2% fetal bovine serum; Monolith NT.115; change of fluorescence analysed.

In assay [2] the target is T2, E. coli β-clamp, wild type, His-tagged (E. coli, UniProt P0A988 1-366).
T2 construct: β-clamp (β subunit of DNA polymerase III), product of the dnaN gene, E. coli; no cleavage is described; also called WT β-clamp; DNA sliding clamp; source: for NMR HisTrap FF and Superdex 200 SEC
Description: NMR titration; 1D 1H NMR of the peptide with sub-stoichiometric β-clamp (100 or 50 μM peptide added 5 or 20 μM β-clamp); line broadening or loss of signal read; 298 K, 20 mM NaH2PO4, 100 mM NaCl, pH 7.4.

Assay [3] deals with T3, E. coli β-clamp M362D, His-tagged (E. coli, UniProt P0A988 1-366, M362D).
T3 construct: β-clamp, product of the dnaN gene, E. coli, with M362D; Made by site-directed mutagenesis of the plasmid of m1
Kind of assay: SPR; WT or mutant β-clamp immobilised by amine coupling on CM5 (about 2000 RU); octamer peptides at 4-128 μM, single-cycle; 25°C, 30 μl/min; PBS P+ (20 mM phosphate pH 7.4, 3 mM KCl, 137 mM NaCl, 0.05% P20); sensorgrams normalised to the immobilised level. (In general: SPR reads the build-up and loss of mass on a sensor chip optically.)

Assay [4] addresses T4, E. coli β-clamp P363D, His-tagged (E. coli, UniProt P0A988 1-366, P363D).
T4 construct: β-clamp, product of the dnaN gene, E. coli, with P363D; Made by site-directed mutagenesis of the plasmid of m1
The assay is described as above.

For assay [5], the target named is T5, E. coli β-clamp H148K, His-tagged (E. coli, UniProt P0A988 1-366, H148K).
T5 construct: β-clamp, product of the dnaN gene, E. coli, with H148K; Made by site-directed mutagenesis of the plasmid of m1
The description is as above.

In assay [6] the target is T6, E. coli β-clamp P242D, His-tagged (E. coli, UniProt P0A988 1-366, P242D).
T6 construct: β-clamp, product of the dnaN gene, E. coli, with P242D; Made by site-directed mutagenesis of the plasmid of m1
Described as above.

Assay [7] deals with T7, E. coli β-clamp V151A, His-tagged (E. coli, UniProt P0A988 1-366, V151A).
T7 construct: β-clamp, product of the dnaN gene, E. coli, with V151A; Made by site-directed mutagenesis of the plasmid of m1
Described as above.

B1: Cell penetrating APIM-peptide RFSLK (Ac-MD-RFSLK-WKKKRKI-RRRRRRRRRRR) (peptide)
peptide: Ac-MDRFSLKWKKKRKIRRRRRRRRRRR-NH2
modifications: also: TFA salt
notes: APIM motif RFSLK, linker WKKKRKI, cell penetrating R11; TFA salt, >90% pure; also called RFSLK-peptide; source: synthetic peptide; bought: Innovagen, Sweden
By Kd is commonly meant the concentration at which binding is half-saturated. As for B1, the Kd in assay [1] was under 50 µM.

B2: Pol III β-clamp binding peptide (Ac-EQVELEFD) (peptide)
peptide: Ac-EQVELEFD-NH2
modifications: also: TFA salt
notes: also called Pol III peptide; source: synthetic peptide; bought: Innovagen, Sweden
With B2, in assay [2], the binding result is “binds”.

B3: Cell penetrating APIM-peptide RWLVK (Ac-MD-RWLVK-WKKKRKI-RRRRRRRRRRR) (peptide)
peptide: Ac-MDRWLVKWKKKRKIRRRRRRRRRRR-NH2
modifications: also: TFA salt
notes: APIM motif RWLVK, linker WKKKRKI, cell penetrating R11; TFA salt, >90% pure; also called RWLVK-peptide; cell penetrating RWLVK-peptide; source: synthetic peptide; bought: Innovagen, Sweden
In assay [1], B3 displayed a Kd of under 50 µM.

B4: Cell penetrating peptide with mutated APIM RALVK (Ac-MD-RALVK-WKKKRKI-RRRRRRRRRRR) (peptide)
peptide: Ac-MDRALVKWKKKRKIRRRRRRRRRRR-NH2
modifications: also: TFA salt
notes: mutated APIM RALVK, linker WKKKRKI, cell penetrating R11; TFA salt, >90% pure; also called RALVK-peptide; source: synthetic peptide; bought: Innovagen, Sweden
In assay [1], B4 yielded a Kd of over 750 µM.

B5: Octamer APIM peptide RWLVK (Ac-MDRWLVKW) (peptide)
peptide: Ac-MDRWLVKW-NH2
modifications: also: TFA salt
notes: APIM motif RWLVK without the cell penetrating part; also called octamer peptide containing RWLVK; source: synthetic peptide; bought: Innovagen, Sweden
As for B5, the binding result in assay [3], in assay [4], in assay [5], in assay [6], in assay [7] and in assay [2] was “binds” in each case.
